According to the supplement of paper PMC10126150:
± gives the standard deviation of the averaged measurements.

Tested on: ATP
Experiment: switch fluorescence ratio, 500 uM ATP over buffer (Cy3 cluster intensity, sum of 5 cycles each) (fold (ratio)); higher = stronger signal-on switching upon ATP binding; sequences stand for … in TCGTCGGCAGCGTCAGATGTGTATAAGAGACAGTTTTTTTTTTTTTTTTTTTTTTTTT…TC
Conditions: aptamer strand: ATP DNA aptamer (quencher-CACCTGGGGGAGTATTGCGGAGGAAGG + anchor), 100 nM annealed; ATP concentration: 500 uM
Procedure, shortened: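 The quencher-labelled ATP aptamer, at 100 nM, was annealed to Cy3-labelled switching-strand clusters on a modified Illumina MiSeq flow-cell. The clusters were imaged in selection buffer, then after 15 min with 500 uM ATP at 22 °C, and this buffer/ATP cycle ran five times with NaOH stripping and re-annealing between runs. Per-cluster fluorescence ratios, summed target-cycle over summed buffer-cycle Cy3 intensity, were averaged per switch-domain sequence. Clusters outside 100-1000 RFU were excluded.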
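Further: ATP exposure 15 min at 22 °C before imaging.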

Sequence	switch fluorescence ratio
TGACTTATGT	1.014 ± 0.0037
GGAAGTGGTA	0.976 ± 0.021
TAACGGGTTT	1.02 ± 0.015
TTTAGGGACG	0.955 ± 0.14
GTCGTTTAAA	0.9898 ± 0.0062
CCGGGTTTGT	1.05 ± 0.03
ACTGGAGGGT	1.02 ± 0.044
TAGAGAATAT	0.992 ± 0.026
TTATGTGGAG	0.974 ± 0.015
ACGGGGGTTT	0.997 ± 0.015
TTTGGGGACT	0.984 ± 0.011
TGGGTCGCCG	0.964 ± 0.012
GGTCATGGTG	1.08 ± 0.024
TTATATGTGA	1.04 ± 0.011
GTTGGATTAG	0.993 ± 0.017
AGTAATTTGT	0.988 ± 0.019
ACAGAACAGT	1.03 ± 0.016
GGGGATGAAG	0.994 ± 0.014
CGTGTGGGAC	1.0136 ± 0.00016
ATGGTATCGT	0.986 ± 0.018
GGGGTGGCAG	0.975 ± 0.027
TGGGTCTAGA	0.975 ± 0.023
ACTGGTATA	0.994 ± 0.032
TTATTTTAGG	0.988 ± 0.044
GGAAATGTTT	1.01 ± 0.026
GATTGAGTTT	0.9866 ± 0.0089

Sequence	switch fluorescence ratio
TATGGGTGCC	0.9771 ± 0.0042
CCGGGTTTAG	1.03 ± 0.023
GCGCTTGTTG	0.998 ± 0.013
TTGTTTGGTA	1 ± 0.013
AAGGCGGGGG	0.986 ± 0.016
TGTGGTGGCA	1 ± 0.058
GTAGGAAATA	1.02 ± 0.02
GAGGGTTGTG	0.969 ± 0.031
TGGTGGAAAA	0.973 ± 0.02
TTTTTGATCG	0.997 ± 0.039
TGGTCTAGGA	1.01 ± 0.011
TACTCATTGC	1.03 ± 0.067
GGGACGTCGT	1.04 ± 0.042
CAGGTTGTTT	1.23 ± 0.45
TATATCATTG	0.965 ± 0.011
TGGGGACGTT	0.971 ± 0.056
CGGAACGTGC	1.04 ± 0.045
AAGGGGTTTG	0.969 ± 0.032
GCAATCTGGG	1.38 ± 0.079
TAATGGTCAC	1.01 ± 0.011
TGGTAAAGGG	0.991 ± 0.034
CATATTGGTC	1 ± 0.062
CATCTCATAT	1.02 ± 0.028
AAGGGTTGGT	0.991 ± 0.028
CATGCTGGGG	0.9941 ± 0.0022
CGGTCGGGGT	0.995 ± 0.045

Sequence	switch fluorescence ratio
AGTTAGGGGA	1.01 ± 0.038
AGCCAGTTCG	1 ± 0.012
TATTTAAAGG	0.986 ± 0.02
GGGAATAACG	0.972 ± 0.058
GGCCTAGGCT	1.02 ± 0.013
TGGTATCTTA	1.026 ± 0.0098
ATCGTAAGGA	1.02 ± 0.046
AAGAAAGTCT	0.995 ± 0.068
TGTTGATGGT	0.976 ± 0.031
TACTACCTGG	1.3 ± 0.25
GTGGCGGTTT	0.995 ± 0.044
TCCGGGGGAC	1.52 ± 0.59
CGAAGTGTTT	1 ± 0.02
TTTCGACTGG	0.996 ± 0.02
TTATTTGTCG	1.01 ± 0.019
CACTTCTGGC	1.03 ± 0.011
CGGAGGTTTG	1.39 ± 0.62
TCTCCGTCCT	1.33 ± 0.025
GCAGGTGACT	1.33 ± 0.077
GAAACTAGTG	0.996 ± 0.015
AGGGGTTGGG	0.992 ± 0.061
CGGATAGAGC	0.9951 ± 0.0085
CGTAAACGCT	1.04 ± 0.024
TCTTGGTCTC	0.995 ± 0.027
AAAAGCCGGT	1.02 ± 0.034
